Experimental data as given in patent US20020068814A1.
Where two headings read alike, the source gives them in different places. No end group written: not given here.

Experiments:
[1] = biological target: CGRP receptor of pig coronary artery (pig); experiment: displacement of 125I-[His10]-h-αCGRP from pig coronary artery membranes
[2] = biological target: CGRP receptor of pig coronary artery (pig); experiment: cell-based or functional assay
[3] = biological target: CGRP receptor of pig coronary artery (pig); experiment: displacement of 125I-[His10]-h-αCGRP from pig coronary artery membranes; remark: listed apart in the source

Molecule | IC50 [1] | IC50 [3] | other results
N-α-benzoyl-h-α-CGRP (8-37) (peptide) | 270 pM |  | 
N-α-benzyl-h-α-CGRP (8-37) (peptide) | 1580 pM |  | 
dibenzyl-h-α-CGRP(8-37) (peptide) | 220 pM |  | 
h-α-CGRP (8-37) (peptide) |  |  | KB from inhibition of h-α-CGRP-induced relaxation of pig coronary artery rings (Schild analysis) [2]: 970 nM
VTHRLAGLLSRSGGMVKSNFVPTNVGSKAF (peptide, UniProt P10092 89-118, looked up, Calcitonin gene-related peptide 2 N-alpha-benzyl) [N-α-benzyl-h-β-CGRP (8-37)] |  | 3620 pM | 
VTHRLAGLLSRSGGMVKSNFVPTNVGSKAF (peptide, UniProt P10092 89-118, looked up, Calcitonin gene-related peptide 2 N-alpha-benzoyl) [N-α-benzoyl-h-β-CGRP (8-37)] |  | 630 pM | 
VTHRLAGLLSRSGGMVKSNFVPTNVGSKAF (ends and bridges not checked) [h-β-CGRP (8-37)] |  | 20600 pM | 
VTHRLAGLLSRSGGMVKSNFVPTNVGSKAF (peptide, UniProt P10092 89-118, looked up, Calcitonin gene-related peptide 2 N,N-dibenzyl) [dibenzyl-h-β-CGRP(8-37)] |  | 730 pM | 
